# Data reported in paper PMC6245143, “Small-animal SPECT/CT imaging of cancer xenografts and pulmonary fibrosis using a ^99mTc-labeled integrin αvβ6-targeting cyclic peptide with improved in vivo stability” (Biophysics Reports, 2018).
# Read-outs that look alike come from different tables or passages of the source. Where a SMILES comes first, the peptide text is derived from it. Bridges are numbered along the chain shown (N, C = ends). Where no end group is shown, it is not given here. The star is where a group is joined. HYNIC = NNc1ccc(C(=O)*)cn1
# Experiments:
# [1] = mouse; cited from earlier work
# Source text: Due to the critical role of integrin αvβ6 in tumorigenesis and fibrogenesis, it has emerged as an appealing target for diagnostic imaging, prognosis evaluation, and therapeutic responses monitoring (Agarwal [2014]; Cantor et al. [2015]; Saini et al. [2015]; Yang et al. [2015]). Therefore, noninvasive and quantitative imaging of integrin αvβ6 expression by molecular imaging techniques would be of great potential for better management of these diseases. Previous studies have focused on the development of positron emission tomography (PET) and single-photon emission computed tomography (SPECT) ra ...
# [2] = Biodistribution in BxPC-3 tumor-bearing nude mice; settings: female, BALB/c nude, in vivo, iv, total radioactivity; for tissue uptake at 1 h: 1 h after injection
# Experimental: (§1) All animal experiments were performed in accordance with the guidelines of Peking University Animal Care and Use Committee. To establish the BxPC-3 subcutaneous tumor model, BxPC-3 cells (1 × 10^7 in 100 μl of PBS) were inoculated subcutaneously into the right front flanks of female BALB/c nude mice. The animals were used for in vivo studies when the tumor size reached 200–300 mm^3 (3–4 weeks after inoculation). For the pulmonary fibrosis mouse model, BLM (1.5 units/kg, 50 μl in PBS) or PBS (50 μl; as a vehicle control) was administered once into the C57/BL6 mice by intratracheal injection. On day 21 (based on pilot studies), the mice with well-established pulmonary fibrosis were used for SPECT/CT imaging.
# Biodistribution studies were performed using female BALB/c nude mice bearing BxPC-3 xenografts. Mice received an injection via the tail vein of 370 kBq (10 μCi) of ^99mTc–HYNIC–cHK to evaluate the distribution of the radiotracer. The blocking experiments were also performed by coinjection of ^99mTc–HYNIC–cHK with a saturating dose of the HK peptide (500 μg per mouse). At 0.5, 1, and 2 h after injection, the animals were sacrificed, and the tumors and the organs/tissues of interest were dissected and wet-weighed, and the radioactivity in the tissue was measured using a γ-counter. The results are presented as percentages of injected dose per gram of tissue (%ID/g). Values are expressed as mean ± SD (n = 4 per group).
# [3] = for degree of metabolism in blood: mouse blood, 1 mCi i.v.
# Experimental: We performed the metabolism studies of ^99mTc–HYNIC–cHK using normal BALB/c mice. We analyzed the samples from both blood and urine to determine whether the radiotracer retains its chemical integrity at 0.5 h and 1 h postinjection.
# The metabolic stability of ^99mTc–HYNIC–cHK was evaluated in female BALB/c normal mice. Each mouse was administered with the radiotracer at a dose of 1 mCi in 100 μl saline via intravenous injection. At 0.5 h and 1 h postinjection, the blood and urine samples were collected. The samples were centrifuged at 8000 r/min for 15 min. The supernatant was collected, filtered through a 0.22-μm Millipore filter, and then analyzed by radio-HPLC.
# [4] = biological target: T1, integrin αvβ6-positive BxPC-3 cells (Homo sapiens, UniProt P06756+P18564); test: Binding of ^99mTc–HYNIC–cHK to BxPC-3 cells, without or with cold peptide blocking; type: cell-based; settings: 4 °C, 4 h
# T1 construct: host or cells: BxPC-3 human pancreatic cancer cells
# T1 sequence (P06756 31-889 limits assumed): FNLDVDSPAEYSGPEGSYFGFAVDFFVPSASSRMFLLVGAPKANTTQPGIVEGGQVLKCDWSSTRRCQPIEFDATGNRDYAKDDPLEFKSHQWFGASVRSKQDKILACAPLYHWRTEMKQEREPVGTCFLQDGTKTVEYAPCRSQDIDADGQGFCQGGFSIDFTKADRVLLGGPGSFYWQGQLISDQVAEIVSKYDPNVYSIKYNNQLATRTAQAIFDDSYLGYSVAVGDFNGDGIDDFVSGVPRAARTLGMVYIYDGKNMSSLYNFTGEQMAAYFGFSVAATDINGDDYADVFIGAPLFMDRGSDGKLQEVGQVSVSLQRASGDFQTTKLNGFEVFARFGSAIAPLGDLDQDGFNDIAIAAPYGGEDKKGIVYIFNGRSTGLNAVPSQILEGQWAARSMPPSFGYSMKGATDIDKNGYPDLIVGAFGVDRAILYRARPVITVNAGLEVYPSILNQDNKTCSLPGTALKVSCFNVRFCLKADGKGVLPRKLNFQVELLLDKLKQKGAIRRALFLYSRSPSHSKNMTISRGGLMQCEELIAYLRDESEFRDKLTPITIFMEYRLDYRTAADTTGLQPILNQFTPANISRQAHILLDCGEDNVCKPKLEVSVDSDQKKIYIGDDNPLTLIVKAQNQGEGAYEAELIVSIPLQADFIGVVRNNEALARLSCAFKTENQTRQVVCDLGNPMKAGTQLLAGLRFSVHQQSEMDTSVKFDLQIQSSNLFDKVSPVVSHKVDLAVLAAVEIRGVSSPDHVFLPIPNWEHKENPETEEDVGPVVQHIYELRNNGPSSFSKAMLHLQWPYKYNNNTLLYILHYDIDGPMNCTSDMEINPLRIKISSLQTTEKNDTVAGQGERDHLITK
# T1 sequence (P06756 891-1048 partner limits assumed): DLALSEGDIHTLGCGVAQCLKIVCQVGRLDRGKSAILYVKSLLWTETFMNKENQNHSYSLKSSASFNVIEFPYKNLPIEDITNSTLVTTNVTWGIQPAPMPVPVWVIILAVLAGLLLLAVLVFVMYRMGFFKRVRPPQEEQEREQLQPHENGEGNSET
# T1 sequence (P18564 22-788): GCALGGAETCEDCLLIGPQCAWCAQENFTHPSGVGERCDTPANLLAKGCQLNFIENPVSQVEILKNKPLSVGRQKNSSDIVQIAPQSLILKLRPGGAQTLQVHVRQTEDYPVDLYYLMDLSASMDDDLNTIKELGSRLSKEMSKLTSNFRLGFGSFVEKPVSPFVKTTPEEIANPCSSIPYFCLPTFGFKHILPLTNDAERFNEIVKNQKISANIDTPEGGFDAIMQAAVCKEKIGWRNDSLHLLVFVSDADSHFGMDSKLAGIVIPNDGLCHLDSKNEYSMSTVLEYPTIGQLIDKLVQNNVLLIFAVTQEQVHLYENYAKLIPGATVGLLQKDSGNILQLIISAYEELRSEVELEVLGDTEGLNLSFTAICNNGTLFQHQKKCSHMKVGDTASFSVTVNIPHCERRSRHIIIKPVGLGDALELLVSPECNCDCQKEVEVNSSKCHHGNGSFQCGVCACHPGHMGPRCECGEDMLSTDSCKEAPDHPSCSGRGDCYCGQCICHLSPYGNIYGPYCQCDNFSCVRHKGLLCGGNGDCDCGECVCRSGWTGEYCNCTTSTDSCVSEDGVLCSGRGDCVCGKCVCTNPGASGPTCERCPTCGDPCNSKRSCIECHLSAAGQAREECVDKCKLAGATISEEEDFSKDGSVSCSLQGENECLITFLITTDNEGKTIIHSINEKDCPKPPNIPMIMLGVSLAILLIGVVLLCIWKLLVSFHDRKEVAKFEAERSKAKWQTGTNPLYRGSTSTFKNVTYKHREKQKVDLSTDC
# Experimental: The binding specificity of ^99mTc–HYNIC–cHK to integrin αvβ6 was evaluated in integrin αvβ6-positive BxPC-3 cells.
# In vitro integrin αvβ6 binding specificity of ^99mTc–HYNIC–cHK was tested using the integrin αvβ6-positive BxPC-3 cells. Briefly, cells were seeded into 12-well plates and incubated overnight at 37 °C to allow adherence. After brief washing with PBS, tumor cells were incubated with 3.7 kBq ^99mTc–HYNIC–cHK with or without an excess dose of cold cHK or HK peptide at 4 °C for 4 h. Tumor cells were then washed with chilled PBS and harvested by trypsinization with 0.05% trypsin. The cell suspensions were collected and measured in a γ-counter (Wallac 1470-002, Perkin-Elmer, Finland). The cell uptake was expressed as the percent added dose (%AD). Experiments were performed twice with triplicate samples.
# [5] = system: bleomycin-induced fibrotic lungs; test: SPECT/CT imaging of bleomycin-induced pulmonary fibrosis; type: in vivo; settings: C57/BL6 mice, 0.5 h after injection
# Experimental: as §1
# (§2) Small-animal SPECT/CT scans of subcutaneous BxPC-3 tumor and pulmonary fibrosis mouse models were performed using a SPECT/CT system (NanoScan; Mediso, Budapest, Hungary). Each BxPC-3-bearing mouse was injected via tail vein with 37 MBq (1 mCi) of ^99mTc–HYNIC–cHK. At 0.5 h and 1 h after injection, the mice were anesthetized by inhalation of 2% isoflurane and imaged using the Nano-SPECT/CT camera, The SPECT and CT fusion images were obtained using the automatic fusion software (InterView Fusion; Mediso Medical Imaging Systems, Budapest, Hungary).
# Each BLM- or PBS-treated mouse was administered with 37 MBq of ^99mTc–HYNIC–cHK via tail vein. […]
# [6] = 37 °C, 0, 0.5, 1, 2 and 4 h, radio-HPLC
# Experimental: The in vitro solution stability of ^99mTc–HYNIC–cHK in fetal bovine serum (FBS) or L-cysteine was monitored by radio-HPLC.
# ^99mTc–HYNIC–cHK was incubated in FBS or L-cysteine (1.0 mg/mL) for 0, 0.5, 1, 2, and 4 h at 37 °C to test the in vitro solution stability. After passing through a 0.22-μm Millipore filter, the samples were analyzed by radio-HPLC.
# [7] = system: BxPC-3 tumors; test: Small-animal SPECT/CT imaging of BxPC-3 cancer xenografts; type: in vivo, BALB/c nude mice; settings: BxPC-3 tumor-bearing mice, 37 MBq i.v., blocking dose of cold HK peptide, P < 0.001
# Experimental: as §1, §2
# [8] = biological target: T2, integrin αvβ6 on BxPC-3 cells (Homo sapiens, UniProt P06756+P18564); test: Displacement cell-binding assay with ^125I–HYK as radioligand
# T2 construct: Experiments were performed on high integrin αvβ6-expressing BxPC-3 cells; host or cells: BxPC-3 human pancreatic cancer cells
# T2 sequence (P06756 31-889 limits assumed): as the sequence (P06756 31-889 limits assumed) above
# T2 sequence (P06756 891-1048 partner limits assumed): as the sequence (P06756 891-1048 partner limits assumed) above
# T2 sequence (P18564 22-788): as the sequence (P18564 22-788) above
# Experimental: In vitro integrin αvβ6 binding affinities of cHK and HK were compared via displacement cell-binding assays (Dong et al. [2015]) using ^125I–HYK as the radioligand. ^125I–HYK was prepared by labeling HYK with Na^125I using the Iodogen method as previously reported (Liu et al. [2010]). Experiments were performed on high integrin αvβ6-expressing BxPC-3 cells. The best-fit 50% inhibitory concentration (IC50) values were calculated by fitting the data with nonlinear regression using Graph-Pad Prism (GraphPad Software, Inc.).
molecule,measurement,setting,value
"CC(C)C[C@H](NC(=O)[C@H](CC(=O)O)NC(=O)CNC(=O)[C@@H](N)CCCNC(=N)N)C(=O)N[C@@H](C)C(=O)N[C@H](C(=O)N[C@@H](CC(C)C)C(=O)N[C@@H](CCCNC(=N)N)C(=O)N[C@@H](CCC(N)=O)C(=O)N[C@@H](CC(C)C)C(=O)N[C@@H](C)C(=O)N[C@@H](CCC(N)=O)C(=O)N[C@@H](CCC(=O)O)C(=O)N[C@@H](CC(=O)O)C(=O)NCC(=O)N[C@H](C(=O)N[C@H](C(=O)NCC(=O)N[C@H](C(=O)N[C@@H](CCCNC(=N)N)C(=O)N[C@@H](CCCCNC(=O)c1ccc(NN)nc1)C(=O)O)C(C)C)C(C)C)C(C)C)[C@@H](C)O [^99mTc–HYNIC–HK, metal not drawn, reference compound] (H-RGDLATLRQLAQEDGVVGVRK(HYNIC)-OH; N-terminus and C-terminus assumed)",time to complete degradation in vivo after injection,[1],≤ 30 min
same,tissue to tissue ratio at 0.5 h,"[2]; mouse, 370 kBq",1.82 ± 0.27
same,tissue uptake at 0.5 h,"[2]; mouse, 370 kBq",0.58 ± 0.09 %ID/g
"CC(C)C[C@@H]1NC(=O)[C@H](CC(=O)O)NC(=O)CNC(=O)[C@H](CCCNC(=N)N)NC(=O)[C@@H](N)CSSC[C@@H](C(=O)O)NC(=O)[C@H](CCCCNC(=O)c2ccc(NN)nc2)NC(=O)[C@H](CC(C)C)NC(=O)[C@H]([C@@H](C)O)NC(=O)[C@H](C)NC1=O [^99mTc–HYNIC–cHK, metal not drawn] (H-CRGDLATLK(HYNIC)C-OH; disulfide 1-10)",in vivo stability compared to ^99mTc–HYNIC–HK,[3]; comparison with linear peptide-based radiotracer (Liu et al. [2014b]),much more stable in vivo
same,degree of metabolism in blood,"[3]; 0.5 h postinjection, radio-HPLC",9.94%
same,degree of metabolism in blood,"[3]; 1 h postinjection, radio-HPLC",30.09%
same,chemical integrity in urine,"[3]; mouse urine, 0.5 h and 1 h postinjection, radio-HPLC",retained its integrity
same,binding of ^99mTc–HYNIC–cHK to BxPC-3 cells (cell uptake),[4]; with excess cold HK peptide (300 μg) blocking,0.06 ± 0.007 %AD
same,binding of ^99mTc–HYNIC–cHK to BxPC-3 cells (cell uptake),[4]; with excess cold cHK peptide (300 μg) blocking,0.03 ± 0.005 %AD
same,binding of ^99mTc–HYNIC–cHK to BxPC-3 cells (cell uptake),"[4]; without blocking, 3.7 kBq tracer, γ-counter, twice with triplicate samples",0.79 ± 0.01 %AD
same,lung uptake in PBS-treated mice (SPECT/CT),"[5]; PBS control, 37 MBq i.v.",no significant uptake
same,lung uptake in BLM-treated mice (SPECT/CT),"[5]; bleomycin 1.5 units/kg intratracheal, day 21, 37 MBq i.v.",evident accumulation
same,time remaining stable in the presence of L-cysteine,[6]; L-cysteine 1.0 mg/mL,more than 4 h
same,time remaining stable in FBS,[6]; fetal bovine serum,more than 4 h
same,tissue uptake at 1 h,"[2]; BxPC-3 tumors, blocking with HK peptide 500 μg per mouse, n = 4, read-out: tumor uptake with coinjection of cold HK peptide",0.24 ± 0.04 %ID/g
same,tissue to tissue ratio at 0.5 h,"[2]; mouse, 370 kBq, BxPC-3 tumor-bearing nude mice, 0.5 h after injection, n = 4, read-out: tumor-to-muscle (T/M) ratio",2.99 ± 0.87
same,tissue uptake at 1 h,"[2]; mouse, 370 kBq, BxPC-3 tumors, mean ± SD, n = 4, read-out: tumor uptake",0.43 ± 0.09 %ID/g
same,tissue uptake at 2 h,"[2]; mouse, 370 kBq, BxPC-3 tumors, 2 h after injection, mean ± SD, n = 4",0.33 ± 0.16 %ID/g
same,tissue uptake at 0.5 h,"[2]; mouse, BxPC-3 tumors, 0.5 h after injection, 370 kBq i.v., mean ± SD, n = 4, read-out: tumor uptake",0.63 ± 0.18 %ID/g
same,tumor uptake in the HK blocking group (SPECT),[7],almost completely inhibited
CC(C)C[C@@H]1NC(=O)[C@H](CC(=O)O)NC(=O)CNC(=O)[C@H](CCCNC(=N)N)NC(=O)[C@@H](N)CSSC[C@@H](C(=O)O)NC(=O)[C@H](CCCCN)NC(=O)[C@H](CC(C)C)NC(=O)[C@H]([C@@H](C)O)NC(=O)[C@H](C)NC1=O [cHK] (H-CRGDLATLKC-OH; disulfide 1-10),IC50,[8],20.3 ± 1.17 nM
"RGDLATLRQLAQEDGVVGVRK [HK, reference compound]",IC50,"[8]; displacement cell-binding assay, BxPC-3 cells, nonlinear regression fit, read-out: IC50, inhibition of ^125I–HYK binding to integrin αvβ6 on BxPC-3 cells",3.55 ± 0.09 nM
